The substances below were run against Recombinant EpCAM (R&D systems), conjugated with Alexa Fluor 647 (UniProt P16422) (assay: flow cytometry, AF647-labelled recombinant EpCAM at 360nM on HEK293T cells expressing the myc-tagged CAR; ratio to anti-myc-FITC signal).
Chain of UniProt P16422 (P16422 24-265 limits assumed): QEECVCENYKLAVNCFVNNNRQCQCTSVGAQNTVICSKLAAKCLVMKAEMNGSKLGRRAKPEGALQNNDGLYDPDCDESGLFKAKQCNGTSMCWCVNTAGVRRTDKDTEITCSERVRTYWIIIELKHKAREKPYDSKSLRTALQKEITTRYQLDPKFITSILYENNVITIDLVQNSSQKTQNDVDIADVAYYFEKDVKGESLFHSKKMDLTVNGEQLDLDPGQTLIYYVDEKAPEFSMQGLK

| Substance | MFIAF647/MFIFITC |
| --- | --- |
| CAR containing D1A scFv (UBS-54 variant, CDR-H3 APFLHY) (from UniProt P01732 138-182; P10747 153-220; P20963 52-164) | 0.246 |
| CAR containing F3A scFv (UBS-54 variant, alanine at CDR-H3 position 3) (from UniProt P01732 138-182; P10747 153-220; P20963 52-164) | 0.016 |
| CAR containing L4A scFv (UBS-54 variant, CDR-H3 DPFAHY) (from UniProt P01732 138-182; P10747 153-220; P20963 52-164) | 0.302 |
| CAR containing Y6A scFv (UBS-54 variant, CDR-H3 DPFLHA) (from UniProt P01732 138-182; P10747 153-220; P20963 52-164) | 0.018 |
| CAR containing Y6F scFv (UBS-54 variant, CDR-H3 DPFLHF) (from UniProt P01732 138-182; P10747 153-220; P20963 52-164) | 0.239 |
| CAR containing Y6L scFv (UBS-54 variant, CDR-H3 DPFLHL) (from UniProt P01732 138-182; P10747 153-220; P20963 52-164) | 0.031 |
| CAR containing Y6V scFv (UBS-54 variant, CDR-H3 DPFLHV) (from UniProt P01732 138-182; P10747 153-220; P20963 52-164) | 0.026 |

— patent US20210317229A1
